B1: His-NONO fusion protein (natural protein, UniProt Q15233 1-471, looked up)
chain: MQSNKTFNLEKQNHTPRKHHQHHHQQQHHQQQQQQPPPPPIPANGQQASSQNEGLTIDLKNFRKPGEKTFTQRSRLFVGNLPPDITEEEMRKLFEKYGKAGEVFIHKDKGFGFIRLETRTLAEIAKVELDNMPLRGKQLRVRFACHSASLTVRNLPQYVSNELLEEAFSVFGQVERAVVIVDDRGRPSGKGIVEFSGKPAARKALDRCSEGSFLLTTFPRPVTVEPMDQLDDEEGLPEKLVIKNQQFHKEREQPPRFAQPGSFEYEYAMRWKALIEMEKQQQDQVDRNIKEAREKLEMEMEAARHEHQVMLMRQDLMRRQEELRRMEELHNQEVQKRKQLELRQEEERRRREEEMRRQQEEMMRRQQEGFKGTFPDAREQEIRMGQMAMGGAMGINNRGAMPPAPVPAGTPAPPGPATMMPDGTLGLTPPTTERFGQAATMEGIGAIGGTPPAFNRAAPGAEFAPNKRRRY
notes: NONO, from the pET28a plasmid; source: E. coli BL21, purified (nickel-nitrilotriacetic acid beads)

Key:
Conditions in all cases: both partners purified
[1] = molecular target: T1, full-length GST-PKM2, wild type (UniProt P14618 1-531); assay: pull-down; GST pull-down: GST-PKM2 (full length, fragments or mutants) incubated with His-NONO at 4 °C for 4 h, five washes, western blot
T1 construct: PKM2, full length (fragments run to residue 531), from the pGEX-6P-1 plasmid; also called GST-PKM2 WT; PKM2-WT; source: E. coli BL21, purified (glutathione S-transferase beads)

[2] = molecular target: T2, GST-PKM2-S406A mutant (UniProt P14618 1-531, S406A); assay: as above
T2 construct: Probably made on the full-length GST-PKM2; source: E. coli BL21, purified (glutathione S-transferase beads)

[3] = molecular target: T3, GST-PKM2-R400A mutant (UniProt P14618 1-531, R400A); assay: as above
T3 construct: PKM2 point mutant, from the pGEX-6P-1 plasmid; Probably made on the full-length GST-PKM2; source: E. coli BL21, purified (glutathione S-transferase beads)

[4] = molecular target: T4, GST-PKM2-T412A mutant (UniProt P14618 1-531, T412A); assay: as above
T4 construct: PKM2 point mutant, from the pGEX-6P-1 plasmid; Probably made on the full-length GST-PKM2; source: E. coli BL21, purified (glutathione S-transferase beads)

[5] = molecular target: T5, GST-PKM2-D476A mutant (UniProt P14618 1-531, D476A); assay: as above
T5 construct: PKM2 point mutant, from the pGEX-6P-1 plasmid; Probably made on the full-length GST-PKM2; source: E. coli BL21, purified (glutathione S-transferase beads)

[6] = molecular target: T6, GST-PKM2-D487A mutant (UniProt P14618 1-531, D487A); assay: as above
T6 construct: PKM2 point mutant, from the pGEX-6P-1 plasmid; Probably made on the full-length GST-PKM2; source: E. coli BL21, purified (glutathione S-transferase beads)

[7] = molecular target: T7, GST-PKM2-W515A mutant (UniProt P14618 1-531, W515A); assay: as above
T7 construct: PKM2 point mutant, from the pGEX-6P-1 plasmid; Probably made on the full-length GST-PKM2; source: E. coli BL21, purified (glutathione S-transferase beads)
T7 sequence (P14618 whole entry W515A): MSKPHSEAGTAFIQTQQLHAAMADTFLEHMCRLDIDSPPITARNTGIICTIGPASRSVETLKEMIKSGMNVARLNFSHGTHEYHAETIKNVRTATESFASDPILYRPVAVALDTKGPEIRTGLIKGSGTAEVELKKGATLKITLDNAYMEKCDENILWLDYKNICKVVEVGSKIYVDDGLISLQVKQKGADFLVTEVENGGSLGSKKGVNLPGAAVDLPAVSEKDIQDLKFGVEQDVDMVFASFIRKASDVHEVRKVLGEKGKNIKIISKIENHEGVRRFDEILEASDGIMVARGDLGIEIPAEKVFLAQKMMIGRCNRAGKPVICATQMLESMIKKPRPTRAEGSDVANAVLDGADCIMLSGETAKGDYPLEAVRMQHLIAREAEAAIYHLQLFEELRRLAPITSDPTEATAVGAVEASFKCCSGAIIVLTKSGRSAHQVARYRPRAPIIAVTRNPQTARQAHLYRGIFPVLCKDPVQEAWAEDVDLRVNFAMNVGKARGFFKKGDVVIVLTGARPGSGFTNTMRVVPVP

[8] = molecular target: T8, GST-PKM2-R526A mutant (UniProt P14618 1-531, R526A); assay: as above
T8 construct: PKM2 point mutant, from the pGEX-6P-1 plasmid; Probably made on the full-length GST-PKM2; source: E. coli BL21, purified (glutathione S-transferase beads)
T8 sequence (P14618 whole entry R526A): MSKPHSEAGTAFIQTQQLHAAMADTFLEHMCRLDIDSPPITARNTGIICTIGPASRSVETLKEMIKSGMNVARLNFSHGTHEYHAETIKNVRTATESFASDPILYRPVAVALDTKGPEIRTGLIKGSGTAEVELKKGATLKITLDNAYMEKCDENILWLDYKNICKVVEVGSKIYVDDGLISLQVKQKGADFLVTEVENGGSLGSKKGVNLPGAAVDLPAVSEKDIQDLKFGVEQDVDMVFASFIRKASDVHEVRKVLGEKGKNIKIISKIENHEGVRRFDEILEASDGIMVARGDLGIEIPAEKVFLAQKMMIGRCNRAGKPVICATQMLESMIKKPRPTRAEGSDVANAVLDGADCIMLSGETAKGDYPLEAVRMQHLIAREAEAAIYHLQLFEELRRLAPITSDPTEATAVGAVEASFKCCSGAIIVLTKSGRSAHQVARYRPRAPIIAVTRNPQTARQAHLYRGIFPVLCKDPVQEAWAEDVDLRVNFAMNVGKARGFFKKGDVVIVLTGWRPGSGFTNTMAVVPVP

[9] = molecular target: T9, His-PKM2 fusion protein (UniProt P14618 1-531); assay: pull-down; GST pull-down: GST-NONO (full length or fragments) on glutathione-Sepharose beads mixed with His-PKM2 for 4 h at 4 °C, five washes, western blot
T9 construct: PKM2, from the pET28a plasmid; source: E. coli BL21, purified (nickel-nitrilotriacetic acid beads)

[10] = molecular target: B1; assay: pull-down; GST pull-down: GST-PKM2 (full length, fragments or mutants) incubated with His-NONO at 4 °C for 4 h, five washes, western blot

B1: binds [1]; binds [2]; binds [3]. B1: binds [4]; binds [5]; binds [6]. B1: binds [7]; binds [8].

B2: full-length GST-NONO (natural protein, UniProt Q15233 1-471, looked up)
chain: MQSNKTFNLEKQNHTPRKHHQHHHQQQHHQQQQQQPPPPPIPANGQQASSQNEGLTIDLKNFRKPGEKTFTQRSRLFVGNLPPDITEEEMRKLFEKYGKAGEVFIHKDKGFGFIRLETRTLAEIAKVELDNMPLRGKQLRVRFACHSASLTVRNLPQYVSNELLEEAFSVFGQVERAVVIVDDRGRPSGKGIVEFSGKPAARKALDRCSEGSFLLTTFPRPVTVEPMDQLDDEEGLPEKLVIKNQQFHKEREQPPRFAQPGSFEYEYAMRWKALIEMEKQQQDQVDRNIKEAREKLEMEMEAARHEHQVMLMRQDLMRRQEELRRMEELHNQEVQKRKQLELRQEEERRRREEEMRRQQEEMMRRQQEGFKGTFPDAREQEIRMGQMAMGGAMGINNRGAMPPAPVPAGTPAPPGPATMMPDGTLGLTPPTTERFGQAATMEGIGAIGGTPPAFNRAAPGAEFAPNKRRRY
notes: NONO, full length (fragments run to residue 471), from the pGEX-6P-1 plasmid; also called GST-NONO fusion protein; source: E. coli BL21, purified (glutathione S-transferase beads)
B2: binds [9].

B3: GST-NONO fragment F4 (229-471 aa) (domain or fragment, UniProt Q15233 229-471, looked up)
chain: QLDDEEGLPEKLVIKNQQFHKEREQPPRFAQPGSFEYEYAMRWKALIEMEKQQQDQVDRNIKEAREKLEMEMEAARHEHQVMLMRQDLMRRQEELRRMEELHNQEVQKRKQLELRQEEERRRREEEMRRQQEEMMRRQQEGFKGTFPDAREQEIRMGQMAMGGAMGINNRGAMPPAPVPAGTPAPPGPATMMPDGTLGLTPPTTERFGQAATMEGIGAIGGTPPAFNRAAPGAEFAPNKRRRY
notes: NONO residues 229-471, from the pGEX-6P-1 plasmid; also called GST-NONO F4; source: E. coli BL21, purified (glutathione S-transferase beads)
B3: binds [9].

B4: GST-PKM2 fragment F4 (390-531 aa) (domain or fragment, UniProt P14618 390-531, looked up)
chain: YHLQLFEELRRLAPITSDPTEATAVGAVEASFKCCSGAIIVLTKSGRSAHQVARYRPRAPIIAVTRNPQTARQAHLYRGIFPVLCKDPVQEAWAEDVDLRVNFAMNVGKARGFFKKGDVVIVLTGWRPGSGFTNTMRVVPVP
notes: PKM2 residues 390-531, from the pGEX-6P-1 plasmid; also called GST-PKM2 F4; source: E. coli BL21, purified (glutathione S-transferase beads)
B4: binds [10].

From paper PMC11892261, “NONO interacts with nuclear PKM2 and directs histone H3 phosphorylation to promote triple-negative breast cancer metastasis” (Journal of Experimental & Clinical Cancer Research : CR, 2025)
